Data from patent US20130344567, “METHOD FOR IMMOBILISING NUCLEIC LIGANDS” (LFB Biotechnologies, published 2013).

Tests used:
Settings in all cases: tags: recombinant human FVII produced in transgenic rabbit milk (FVII-TG)
[1] = biological target: T1, Factor VII (FVII/FVIIa, active Gla domain) (Homo sapiens, UniProt P08709;P08709 P08709:61-212,P08709:213-466); assay: affinity chromatography; 95% of FVII retained and eluted with EDTA (coupling pH 4.2); loading capacity 5.4 mg FVII/ml gel at 5.8 mg/ml aptamer; 50 mM Tris, 10 mM CaCl2, pH 7.5
Experimental: (§1) The loading capacity (or in other words the retention capacity) of the affinity supports, expressed in mg of FVII per ml of gel, was evaluated by injection of a composition of recombinant human FVII in “Tp5” buffer (50 mM Tris, 10 mM CaCl₂, pH 7.5).
(§2) Table 3 below gives the loading capacity of the affinity supports as a function of the number of aptamers grafted at their surface.

[2] = biological target: T1, Factor VII (FVII/FVIIa, active Gla …); assay: affinity chromatography; loading capacity 8.0 mg FVII/ml gel at 5.6 mg/ml aptamer; FVIIam yield in eluate 76.8%; Tris, 10 mM CaCl2, EDTA elution
Experimental: as §1, §2

[3] = biological target: T1, Factor VII (FVII/FVIIa, active Gla …); assay: affinity chromatography; FVIIam yield in eluate 73.8%, 1.1% not retained; 50 mM Tris, 10 mM CaCl2, 4 mM MgCl2, pH 7.5; EDTA elution

B1: Mapt 2CS-PEG(C11) (oligo5) (ssDNA)
DNA: ATGCAGCCAGCCGCAGTGTAAGTGAATGCAGACATGGTCTAAGTG
modifications: 5' amine hydrophilic C11 spacer (11-amino-3,6,9-trioxaundecan-1-yl), grafted on NHS-activated Sepharose 4 FF
- binding result [1]: binds

B2: Mapt 2.2CS-PEG(C11) (ssDNA)
DNA: CCGCACGCTACGCGCATGAACCCGCGCACACGACTTGAAGTAGC
modifications: 5' amine hydrophilic C11 spacer (11-amino-3,6,9-trioxaundecan-1-yl), grafted on NHS-activated Sepharose 4 FF
- binding result [2]: binds

Binder: CCGCACGCTACGCGCATGAACCCGCGCACACGACTTGAAGTAGC (ssDNA, 5' amine C6 spacer, grafted on NHS-activated Sepharose 4 FF) [Mapt 2.2CS C6]
- binding result [3]: binds
